The record followed here is IntAct's records for PubMed 29610859.

The assay deals with ubql1_human UBQLN1 (UniProt Q9UMX0).
Sequence of ubql1_human UBQLN1 (Q9UMX0 whole entry): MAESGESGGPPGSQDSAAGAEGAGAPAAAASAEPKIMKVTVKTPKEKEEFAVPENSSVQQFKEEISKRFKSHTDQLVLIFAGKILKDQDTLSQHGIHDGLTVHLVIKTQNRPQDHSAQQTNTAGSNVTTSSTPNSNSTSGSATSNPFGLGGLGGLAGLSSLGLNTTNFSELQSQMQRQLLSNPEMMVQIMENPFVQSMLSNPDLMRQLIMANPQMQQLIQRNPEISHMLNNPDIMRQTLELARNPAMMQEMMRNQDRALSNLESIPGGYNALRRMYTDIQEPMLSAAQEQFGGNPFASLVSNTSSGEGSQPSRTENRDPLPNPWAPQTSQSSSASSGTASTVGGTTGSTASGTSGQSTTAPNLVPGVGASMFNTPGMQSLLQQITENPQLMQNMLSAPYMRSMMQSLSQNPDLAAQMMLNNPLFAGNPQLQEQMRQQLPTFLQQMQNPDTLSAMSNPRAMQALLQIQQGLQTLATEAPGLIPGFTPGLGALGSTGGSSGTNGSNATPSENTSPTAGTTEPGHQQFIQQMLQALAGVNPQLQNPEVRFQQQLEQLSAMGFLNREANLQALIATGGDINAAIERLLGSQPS

With “Cytochrome c oxidase subunit 1 (Homo sapiens) (from UniProt P00395) V83I”, the “effect of a mutation on the interaction” value was “with no effect”.
